Measured values from paper PMC10148081.

Target: Leishmania tarentolae propionyl-CoA carboxylase (LtPCC) β-subunit (Leishmania tarentolae (endogenous in L. tarentolae cells))
Experiment: cryo-EM structure; endogenous LtPCC complexes from streptavidin pull-down, in 20 mM Tris-HCl pH 7.5, 60 mM KCl, 5 mM MgCl2, 1 mM DTT, 5 mM OG; α6β6 map with D3 symmetry at 3.2 Å, α5β6 (8.6 Å) and α4β6 (10.3 Å) maps with C1 symmetry

Leishmania tarentolae propionyl-CoA carboxylase (LtPCC) β-subunit (natural protein)
stoichiometry N: 6
